Source: the supplement of paper PMC10126150
± gives the standard deviation of the averaged measurements.

Test system: ATP
Test: switch fluorescence ratio, 500 uM ATP over buffer (Cy3 cluster intensity, sum of 5 cycles each) (fold (ratio)); higher = stronger signal-on switching upon ATP binding; sequences stand for … in TCGTCGGCAGCGTCAGATGTGTATAAGAGACAGTTTTTTTTTTTTTTTTTTTTTTTTT…TC
Settings: aptamer strand: ATP DNA aptamer (quencher-CACCTGGGGGAGTATTGCGGAGGAAGG + anchor), 100 nM annealed; ATP concentration: 500 uM
Outline: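 Clusters carrying Cy3-labelled switching strands on a modified Illumina MiSeq flow-cell were annealed to 100 nM quencher-labelled ATP aptamer and imaged in selection buffer. They were imaged again after 15 min with 500 uM ATP at 22 °C, over five buffer/ATP cycles with NaOH stripping and re-annealing in between. For each cluster, the fluorescence ratio is the summed Cy3 intensity of the target cycles divided by that of the buffer cycles, averaged per switch-domain sequence. Clusters outside 100-1000 RFU were left out.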
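Further: ATP exposure 15 min at 22 °C before imaging.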

In the case of GACCAAAGGG, the switch fluorescence ratio is reported as 1.03 ± 0.058.
Work on GACCAAATTT yielded a switch fluorescence ratio of 1.02 ± 0.064.
GACCACAGCG gave a switch fluorescence ratio of 1.02 ± 0.029.
Sequence GACCAGGTTA has a switch fluorescence ratio of 1.181 ± 0.0052.
Sequence GACCATGGCA has a switch fluorescence ratio of 1.01 ± 0.045.
In the case of GACCCTGATC, the switch fluorescence ratio is reported as 1.17 ± 0.058.
GACCGATTTT gave a switch fluorescence ratio of 0.989 ± 0.015.
With GACCGGGTAA the switch fluorescence ratio was 1.02 ± 0.033.
GACCGTTGGA was tested, and the switch fluorescence ratio was 0.987 ± 0.037.
Work on GACCGTTTGA yielded a switch fluorescence ratio of 1.03 ± 0.03.
Sequence GACCTAAGGT has a switch fluorescence ratio of 0.988 ± 0.035.
With GACCTCACAT the switch fluorescence ratio was 1.18 ± 0.022.
GACCTGTAAT gave a switch fluorescence ratio of 1.025 ± 0.0013.
Work on GACCTGTTTT yielded a switch fluorescence ratio of 0.987 ± 0.063.
GACCTTGATT showed a switch fluorescence ratio of 1.03 ± 0.029.
For GACCTTGTGC, the switch fluorescence ratio was 1.03 ± 0.042.
In the case of GACGAATGGG, the switch fluorescence ratio is reported as 0.985 ± 0.015.
With GACGACGTTA the switch fluorescence ratio was 1.55 ± 0.026.
In the case of GACGAGATAG, the switch fluorescence ratio is reported as 1.17 ± 0.076.
Work on GACGAGCGGG yielded a switch fluorescence ratio of 1 ± 0.025.
With GACGAGGG the switch fluorescence ratio was 1.03 ± 0.038.
Work on GACGATACGT yielded a switch fluorescence ratio of 1.14 ± 0.038.
GACGATCCTG showed a switch fluorescence ratio of 1.08 ± 0.043.
GACGATGACG was tested, and the switch fluorescence ratio was 0.987 ± 0.014.
GACGCACTAA gave a switch fluorescence ratio of 2.76 ± 0.44.
GACGCAGGTG showed a switch fluorescence ratio of 2.5 ± 0.24.
Sequence GACGCGCGTA has a switch fluorescence ratio of 1.01 ± 0.027.
GACGCTGTGC showed a switch fluorescence ratio of 3.6 ± 0.41.
GACGGAGGGG showed a switch fluorescence ratio of 1.01 ± 0.027.
Work on GACGGATTTA yielded a switch fluorescence ratio of 0.988 ± 0.035.
With GACGGCGCTG the switch fluorescence ratio was 0.957 ± 0.049.
GACGGCTCAG was tested, and the switch fluorescence ratio was 1 ± 0.015.
For GACGGGGAGA, the switch fluorescence ratio was 1.06 ± 0.038.
GACGGGGTGT gave a switch fluorescence ratio of 1.059 ± 0.0039.
GACGGGTGAG gave a switch fluorescence ratio of 0.9917 ± 0.0087.
GACGGGTGGC gave a switch fluorescence ratio of 1.11 ± 0.02.
GACGGGTTTC gave a switch fluorescence ratio of 0.991 ± 0.017.
GACGTAAAAG gave a switch fluorescence ratio of 1.097 ± 0.0096.
Sequence GACGTAAATA has a switch fluorescence ratio of 1.75 ± 0.18.
GACGTAACGG gave a switch fluorescence ratio of 1.082 ± 0.0014.
For GACGTAAGTT, the switch fluorescence ratio was 1.02 ± 0.018.
Work on GACGTGGAAG yielded a switch fluorescence ratio of 1.01 ± 0.024.
GACGTGTGTC was tested, and the switch fluorescence ratio was 0.983 ± 0.023.
In the case of GACGTTATTG, the switch fluorescence ratio is reported as 1.03 ± 0.013.
GACGTTCATA showed a switch fluorescence ratio of 1.083 ± 0.0089.
GACGTTGAGG showed a switch fluorescence ratio of 0.983 ± 0.023.
Work on GACGTTGCTA yielded a switch fluorescence ratio of 1.06 ± 0.019.
With GACGTTTCAG the switch fluorescence ratio was 0.95 ± 0.02.
GACGTTTGGG showed a switch fluorescence ratio of 0.982 ± 0.022.
GACGTTTTAG showed a switch fluorescence ratio of 0.993 ± 0.052.
For GACGTTTTTA, the switch fluorescence ratio was 1.01 ± 0.046.
Work on GACTAAGTTT yielded a switch fluorescence ratio of 1.018 ± 0.0076.
Sequence GACTAATGAT has a switch fluorescence ratio of 1.02 ± 0.024.
GACTAATTGG was tested, and the switch fluorescence ratio was 0.957 ± 0.013.
For GACTACATTA, the switch fluorescence ratio was 1.03 ± 0.025.
With GACTACGGCC the switch fluorescence ratio was 1.049 ± 0.0065.
For GACTAGGCGG, the switch fluorescence ratio was 1.12 ± 0.2.
Sequence GACTAGTATA has a switch fluorescence ratio of 1.01 ± 0.04.
Work on GACTATTAGC yielded a switch fluorescence ratio of 0.984 ± 0.028.
GACTCAGAGG was tested, and the switch fluorescence ratio was 1.03 ± 0.011.
With GACTCCTGAG the switch fluorescence ratio was 0.98 ± 0.033.
For GACTGACTGG, the switch fluorescence ratio was 0.996 ± 0.018.
GACTGGAGGA gave a switch fluorescence ratio of 0.9851 ± 0.008.
For GACTGGGGCA, the switch fluorescence ratio was 1.017 ± 0.0053.
In the case of GACTGGTTGC, the switch fluorescence ratio is reported as 1 ± 0.053.
Work on GACTGTCGGC yielded a switch fluorescence ratio of 1.02 ± 0.024.
GACTGTTAGG gave a switch fluorescence ratio of 1.03 ± 0.016.
For GACTTAGGAC, the switch fluorescence ratio was 1.02 ± 0.021.
Sequence GACTTAGGTA has a switch fluorescence ratio of 0.975 ± 0.027.
GACTTATCCT showed a switch fluorescence ratio of 1.054 ± 0.004.
GACTTCCAGG gave a switch fluorescence ratio of 1.05 ± 0.026.
In the case of GACTTCTTAG, the switch fluorescence ratio is reported as 0.9573 ± 0.0041.
Work on GACTTTAAGC yielded a switch fluorescence ratio of 1.01 ± 0.032.
GACTTTACTG showed a switch fluorescence ratio of 1.06 ± 0.049.
GACTTTTAGG showed a switch fluorescence ratio of 1.01 ± 0.027.
With GACTTTTATA the switch fluorescence ratio was 0.996 ± 0.026.
For GAGAAAACCG, the switch fluorescence ratio was 1.06 ± 0.092.
GAGAAAATTT gave a switch fluorescence ratio of 0.989 ± 0.043.
GAGAAAGGGG gave a switch fluorescence ratio of 1.06 ± 0.14.
Work on GAGAAAGGTG yielded a switch fluorescence ratio of 1.09 ± 0.022.
GAGAAAGTGG showed a switch fluorescence ratio of 0.9924 ± 0.001.
Work on GAGAAATTGG yielded a switch fluorescence ratio of 1 ± 0.022.
Sequence GAGAAGGGAG has a switch fluorescence ratio of 0.9895 ± 0.0055.
Sequence GAGAATCGGT has a switch fluorescence ratio of 1.03 ± 0.078.
Sequence GAGAATGGCA has a switch fluorescence ratio of 0.964 ± 0.028.
Work on GAGAATTGGG yielded a switch fluorescence ratio of 1.02 ± 0.061.
Sequence GAGACAGTTA has a switch fluorescence ratio of 0.992 ± 0.014.
For GAGACCCGTG, the switch fluorescence ratio was 0.9867 ± 0.0059.
In the case of GAGACGTTTG, the switch fluorescence ratio is reported as 1.02 ± 0.054.
Work on GAGACTAGGT yielded a switch fluorescence ratio of 1.04 ± 0.025.
With GAGACTGGTT the switch fluorescence ratio was 1.03 ± 0.034.
Sequence GAGAGAAAAT has a switch fluorescence ratio of 1.49 ± 0.63.
With GAGAGAGGTG the switch fluorescence ratio was 1.0377 ± 0.00093.
Work on GAGAGATAGT yielded a switch fluorescence ratio of 1.03 ± 0.015.
Work on GAGAGGGTAT yielded a switch fluorescence ratio of 0.966 ± 0.012.
In the case of GAGAGGGTTG, the switch fluorescence ratio is reported as 0.971 ± 0.033.
With GAGAGTATGT the switch fluorescence ratio was 0.998 ± 0.043.
Work on GAGAGTCCTT yielded a switch fluorescence ratio of 0.997 ± 0.015.
Work on GAGAGTCTAG yielded a switch fluorescence ratio of 0.989 ± 0.015.
For GAGAGTTTTC, the switch fluorescence ratio was 0.985 ± 0.037.
GAGATACTCT gave a switch fluorescence ratio of 1.03 ± 0.012.
GAGATAGTAG showed a switch fluorescence ratio of 1 ± 0.015.
Sequence GAGATCATTG has a switch fluorescence ratio of 1.07 ± 0.057.
In the case of GAGATGGCAT, the switch fluorescence ratio is reported as 0.987 ± 0.04.
GAGATGGGGA gave a switch fluorescence ratio of 0.991 ± 0.022.
In the case of GAGATGGGTA, the switch fluorescence ratio is reported as 0.997 ± 0.027.
GAGATTAGGT showed a switch fluorescence ratio of 0.977 ± 0.015.
In the case of GAGATTGCGG, the switch fluorescence ratio is reported as 0.9849 ± 0.0012.
GAGATTTGAC gave a switch fluorescence ratio of 1.01 ± 0.025.
GAGCAATATA was tested, and the switch fluorescence ratio was 5.13 ± 1.7.
GAGCAATGTG showed a switch fluorescence ratio of 1.22 ± 0.3.
GAGCAGTGCA gave a switch fluorescence ratio of 1.03 ± 0.037.
Work on GAGCATTCCG yielded a switch fluorescence ratio of 1.003 ± 0.0051.
With GAGCCGGAGC the switch fluorescence ratio was 0.993 ± 0.012.
GAGCGACCTG gave a switch fluorescence ratio of 0.989 ± 0.016.
Work on GAGCGAGGAA yielded a switch fluorescence ratio of 0.98171 ± 0.00093.
For GAGCGAGGGA, the switch fluorescence ratio was 1.14 ± 0.052.
In the case of GAGCGCGAGG, the switch fluorescence ratio is reported as 0.99 ± 0.037.
With GAGCGTAACG the switch fluorescence ratio was 0.9999 ± 0.0027.
Work on GAGCGTGGGA yielded a switch fluorescence ratio of 1.11 ± 0.081.
Sequence GAGCTACTGA has a switch fluorescence ratio of 1.011 ± 0.0085.
Sequence GAGCTATCAC has a switch fluorescence ratio of 1.16 ± 0.035.
Sequence GAGCTATGTG has a switch fluorescence ratio of 1.03 ± 0.0011.
Sequence GAGCTGGTGG has a switch fluorescence ratio of 0.96 ± 0.019.
GAGCTTACGG was tested, and the switch fluorescence ratio was 1.064 ± 0.01.
For GAGCTTCTTG, the switch fluorescence ratio was 1.017 ± 0.0063.
GAGGAAAAAT showed a switch fluorescence ratio of 1.062 ± 0.0021.
With GAGGAAGGAC the switch fluorescence ratio was 1.04 ± 0.014.
Work on GAGGACTCGT yielded a switch fluorescence ratio of 1.01 ± 0.016.
With GAGGAGGTTT the switch fluorescence ratio was 0.968 ± 0.017.
GAGGATATGT showed a switch fluorescence ratio of 0.971 ± 0.035.
Sequence GAGGATCAGG has a switch fluorescence ratio of 1.03 ± 0.056.
GAGGATCTTG gave a switch fluorescence ratio of 1 ± 0.031.
GAGGATGATC gave a switch fluorescence ratio of 1.01 ± 0.032.
In the case of GAGGATGGGA, the switch fluorescence ratio is reported as 0.98 ± 0.022.
In the case of GAGGCCATTT, the switch fluorescence ratio is reported as 1.01 ± 0.046.
Sequence GAGGCCGTTG has a switch fluorescence ratio of 1.02 ± 0.023.
Sequence GAGGCGAGTC has a switch fluorescence ratio of 1.06 ± 0.029.
GAGGCGGGGA gave a switch fluorescence ratio of 1.01 ± 0.03.
Work on GAGGCGTATT yielded a switch fluorescence ratio of 0.988 ± 0.049.
GAGGCGTCAA gave a switch fluorescence ratio of 0.997 ± 0.027.
With GAGGCTAGGG the switch fluorescence ratio was 1.05 ± 0.031.
In the case of GAGGCTAGGT, the switch fluorescence ratio is reported as 1.01 ± 0.029.
GAGGCTATGG showed a switch fluorescence ratio of 1.01 ± 0.022.
In the case of GAGGCTCATT, the switch fluorescence ratio is reported as 0.964 ± 0.035.
For GAGGCTTAAT, the switch fluorescence ratio was 0.9822 ± 0.0078.
With GAGGCTTTTT the switch fluorescence ratio was 0.979 ± 0.024.
For GAGGGAAAAG, the switch fluorescence ratio was 1.01 ± 0.032.
With GAGGGAAGTA the switch fluorescence ratio was 1.06 ± 0.17.
GAGGGACGGG showed a switch fluorescence ratio of 1.02 ± 0.025.
Work on GAGGGAGGTG yielded a switch fluorescence ratio of 1.02 ± 0.018.
With GAGGGAGTGG the switch fluorescence ratio was 1.01 ± 0.037.
In the case of GAGGGATTCT, the switch fluorescence ratio is reported as 0.99037 ± 0.00064.
In the case of GAGGGATTTT, the switch fluorescence ratio is reported as 1.02 ± 0.017.
Sequence GAGGGCAATC has a switch fluorescence ratio of 2.76 ± 0.64.
In the case of GAGGGCAATG, the switch fluorescence ratio is reported as 1.22 ± 0.067.
With GAGGGCACTG the switch fluorescence ratio was 0.956 ± 0.023.
